# Patent US20230340151A1 (Pfizer, published 2023)
# Where two headings read alike, the source gives them in different places.
# T1: Cynomolgus GUCY2C full length on 300.19 cells (cynomolgus, UniProt P25092 24-1073 (human entry))
# T1 construct: also called cyno GUCY2c
# T1 chain: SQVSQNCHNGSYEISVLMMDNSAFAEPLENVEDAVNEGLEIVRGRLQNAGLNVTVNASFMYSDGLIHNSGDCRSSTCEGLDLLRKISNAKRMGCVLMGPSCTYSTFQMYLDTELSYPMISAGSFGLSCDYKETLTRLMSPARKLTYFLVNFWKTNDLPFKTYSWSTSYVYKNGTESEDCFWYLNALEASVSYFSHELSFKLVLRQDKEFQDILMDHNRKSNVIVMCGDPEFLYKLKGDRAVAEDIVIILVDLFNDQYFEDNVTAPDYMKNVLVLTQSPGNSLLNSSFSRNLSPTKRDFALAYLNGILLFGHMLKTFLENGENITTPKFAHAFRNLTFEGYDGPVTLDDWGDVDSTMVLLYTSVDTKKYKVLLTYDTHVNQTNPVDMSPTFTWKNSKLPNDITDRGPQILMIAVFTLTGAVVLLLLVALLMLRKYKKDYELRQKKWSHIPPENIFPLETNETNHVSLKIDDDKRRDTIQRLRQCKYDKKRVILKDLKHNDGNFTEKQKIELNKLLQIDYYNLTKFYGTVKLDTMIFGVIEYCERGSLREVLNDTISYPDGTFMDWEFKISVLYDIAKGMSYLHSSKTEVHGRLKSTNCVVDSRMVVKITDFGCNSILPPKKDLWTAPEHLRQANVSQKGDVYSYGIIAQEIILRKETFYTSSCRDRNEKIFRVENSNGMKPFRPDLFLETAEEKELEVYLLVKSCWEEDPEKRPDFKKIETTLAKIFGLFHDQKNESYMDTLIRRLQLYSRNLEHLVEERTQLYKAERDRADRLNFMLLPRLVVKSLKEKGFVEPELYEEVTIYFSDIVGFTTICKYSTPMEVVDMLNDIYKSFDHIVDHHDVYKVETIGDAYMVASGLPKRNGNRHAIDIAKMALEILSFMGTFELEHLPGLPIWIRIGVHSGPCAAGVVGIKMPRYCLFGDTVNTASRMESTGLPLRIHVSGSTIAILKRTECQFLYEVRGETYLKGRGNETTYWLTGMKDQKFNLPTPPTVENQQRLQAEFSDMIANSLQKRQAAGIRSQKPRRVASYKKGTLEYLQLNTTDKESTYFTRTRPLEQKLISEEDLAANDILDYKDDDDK
# T2: GUCY2C_ECD Peptide 19 (human)
# T2 construct: also called GUCY2c peptide 19; GUCY2c-ECD peptide number 19
# T2 peptide: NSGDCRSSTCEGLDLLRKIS
# T3: Cynomolgus GUCY2C-ECD Cleaved (cynomolgus, UniProt P25092 24-430 (human entry))
# T3 construct: also called CyGUCY2C
# T3 chain: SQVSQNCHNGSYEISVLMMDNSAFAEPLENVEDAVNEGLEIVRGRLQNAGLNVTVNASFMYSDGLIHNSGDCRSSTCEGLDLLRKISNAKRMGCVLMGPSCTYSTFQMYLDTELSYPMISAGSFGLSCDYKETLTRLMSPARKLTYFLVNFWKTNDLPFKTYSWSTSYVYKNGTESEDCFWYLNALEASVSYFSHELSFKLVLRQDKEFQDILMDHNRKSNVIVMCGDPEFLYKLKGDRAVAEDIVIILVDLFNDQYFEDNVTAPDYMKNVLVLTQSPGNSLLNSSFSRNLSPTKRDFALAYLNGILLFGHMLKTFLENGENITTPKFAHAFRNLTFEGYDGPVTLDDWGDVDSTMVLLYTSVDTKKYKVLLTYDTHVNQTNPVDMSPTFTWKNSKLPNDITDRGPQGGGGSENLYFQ
# T4: Human CD3 epsilon-delta (human)
# T4 construct: Single-chain epsilon-linker-delta with His6; also called huCD3
# T4 chain: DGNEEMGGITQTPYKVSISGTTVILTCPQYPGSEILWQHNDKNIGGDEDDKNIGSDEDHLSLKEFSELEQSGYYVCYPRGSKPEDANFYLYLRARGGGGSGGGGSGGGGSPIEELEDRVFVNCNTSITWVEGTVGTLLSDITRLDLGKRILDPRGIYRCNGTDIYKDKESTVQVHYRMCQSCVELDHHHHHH
# B1: 9H3 (antibody)
# heavy: QVQLQQPGAELVKPGASVKLSCKASGYTFTSYWMHWVKQRPGQGLEWIGEIKPSNGLTNYIEKFKNKATLTVDKSATTAYMQLSSLTAEDSAVYYCTRTITTTEGYWFFDVWGAGTTVTVSSAKTTPPSVYPLAPGSAAQTNSMVTLGCLVKGYFPEPVTVTWNSGSLSSGVHTFPAVLQSDLYTLSSSVTVPSSTWPSETVTCNVAHPASSTKVDKKIVPRDCGCKPCICTVPEVSSVFIFPPKPKDVLTITLTPKVTCVVVDISKDDPEVQFSWFVDDVEVHTAQTQPREEQFNSTFRSVSELPIMHQDWLNGKEFKCRVNSAAFPAPIEKTISKTKGRPKAPQVYTIPPPKEQMAKDKVSLTCMITDFFPEDITVEWQWNGQPAENYKNTQPIMDTDGSYFVYSKLNVQKSNWEAGNTFTCSVLHEGLHNHHTEKSLSHSPGK
# light: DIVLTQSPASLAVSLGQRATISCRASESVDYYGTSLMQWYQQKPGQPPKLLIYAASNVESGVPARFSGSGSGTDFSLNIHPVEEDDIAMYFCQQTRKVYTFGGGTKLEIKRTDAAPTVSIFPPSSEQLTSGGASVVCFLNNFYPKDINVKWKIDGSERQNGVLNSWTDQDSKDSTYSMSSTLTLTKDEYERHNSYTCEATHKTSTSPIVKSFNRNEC
# notes: Tested as hybridoma antibody; also called GUCY2C-9H3
# B2: GUCY2C-1715 (antibody, human IgG1, V domains shown)
# VH: EVQLVESGGGLVQPGGSLRLSCAASGFTFSSYWMHWVRQAPGKGLEWIGEIKPSTKYTNVHEKFKDRFTISVDKAKNSAYLQMNSLRAEDTAVYYCTRTIFTNEGYWFFDVWGQGTLVTVSS
# VL: DIQLTQSPSSLSASVGDRVTITCRASESVSIYGSSLMQWYQQKPGKAPKLLIYAASKLASGVPSRFSGSGSGTDFTLTISSLQPEDFATYYCQQTRKAYTFGQGTKLEIK
# notes: full human IgG1/kappa
# B3: GUCY2C-1608 scFv (scFv)
# scFv: EVQLVESGGGLVQPGGSLRLSCAASGFTFSSYWMHWVRQAPGKGLEWIGEIKPSNELTNVHEKFKDRFTISVDKAKNSAYLQMNSLRAEDTAVYYCTRTITTTEGYWFFDVWGQGTLVTVSSGGGGSGGGGSGGGGSGDIQLTQSPSSLSASVGDRVTITCRASESVDYYGSSLLQWYQQKPGKAPKLLIYAASKLASGVPSRFSGSGSGTDFTLTISSLQPEDFATYYCQQTRKAYTFGQGTKLEIKTGSENLYFQ
# B4: GUCY2C-0118, rabbit chimeric IgG version of GUCY2C-0098 (antibody)
# heavy: QVQLQQPGAELVKPGASVKLSCKASGYTFTSYWMHWVKQRPGQGLEWIGEIKPSNGLTNYIEKFKNKATLTVDKSATTAYMQLSSLTAEDSAVYYCTRTITTTEGYWFFDVWGAGTTVTVSSGQPKAPSVFPLAPCCGDTPSSTVTLGCLVKGYLPEPVTVTWNSGTLTNGVRTFPSVRQSSGLYSLSSVVSVTSSSQPVTCNVAHPATNTKVDKTVAPSTCSKPTCPPPELLGGPSVFIFPPKPKDTLMISRTPEVTCVVVDVSQDDPEVQFTWYINNEQVRTARPPLREQQFNSTIRVVSTLPIAHQDWLRGKEFKCKVHNKALPAPIEKTISKARGQPLEPKVYTMGPPREELSSRSVSLTCMINGFYPSDISVEWEKNGKAEDNYKTTPAVLDSDGSYFLYSKLSVPTSEWQRGDVFTCSVMHEALHNHYTQKSISRSPGK
# light: DIVLTQSPASLAVSLGQRATISCRASESVDYYGTSLMQWYQQKPGQPPKLLIYAASNVESGVPARFSGSGSGTDFSLNIHPVEEDDIAMYFCQQTRKVYTFGGGTKLEIKGDPVAPTVLIFPPAADQVATGTVTIVCVANKYFPDVTVTWEVDGTTQTTGIENSKTPQNSADCTYNLSSTLTLTSTQYNSHKEYTCRVTQGTTSVVQSFNRGDC
# notes: also called Rabbit IgG version of clone 9H3
# B5: GUCY2C-1478 (bispecific antibody)
# chain 1: DIQLTQSPSSLSASVGDRVTITCRASESVDYYGSSLLQWYQQKPGKAPKLLIYAASKLASGVPSRFSGSGSGTDFTLTISSLQPEDFATYYCQQTRKAYTFGQGTKLEIKGGGSGGGGEVQLVESGGGLVQPGGSLRLSCAASGFTFSDYYMTWVRQAPGKGLEWVAFIRNQARGYTSDHNPSVKGRFTISRDNAKNSLYLQMNSLRAEDTAVYYCARDRPSYYVLDYWGQGTTVTVSSGCPPCPAPEAAGAPSVFLFPPKPKDTLMISRTPEVTCVVVDVSHEDPEVKFNWYVDGVEVHNAKTKPREEQYNSTYRVVSVLTVLHQDWLNGKEYKCKVSNKALPAPIEKTISKAKGQPREPQVCTLPPSREEMTKNQVSLWCLVKGFYPSDIAVEWESNGQPENNYKTTPPVLDSDGSFFLYSKLTVDKSRWQQGNVFSCSVMHEALHNHYTQKSLSLSPG
# chain 2: DIQMTQSPSSLSASVGDRVTITCTSSQSLFNVRSQKNYLAWYQQKPGKAPKLLIYWASTRESGVPSRFSGSGSGTDFTLTISSLQPEDFATYYCKQSYDLFTFGGGTKVEIKGGGGSGGGGEVQLVESGGGLVQPGGSLRLSCAASGYTFTSYWMHWVRQAPGKGLEWIGEIKPSNGLTNVHEKFKNRFTISVDKAKNSAYLQMNSLRAEDTAVYYCTRTITTTEGYWFFDVWGQGTLVTVSSGCPPCPAPEAAGAPSVFLFPPKPKDTLMISRTPEVTCVVVDVSHEDPEVKFNWYVDGVEVHNAKTKPREEQYNSTYRVVSVLTVLHQDWLNGKEYKCKVSNKALPAPIEKTISKAKGQPREPQVYTLPPCREEMTKNQVSLSCAVKGFYPSDIAVEWESNGQPENNYKTTPPVLDSDGSFFLVSKLTVDKSRWQQGNVFSCSVMHEALHNHYTQKSLSLSPG
# notes: CD3-0006
# Key:
# [1] = biological target: T1, Cynomolgus GUCY2C full length on 300.19 …; assay: IHC on cell pellets
# [2] = biological target: T5, Murine GUCY2C full length on 300.19 cells (mouse, UniProt Q3UWA6 20-1072); assay: IHC on cell pellets
# T5 construct: also called mouse GUCY2c
# Human GUCY2C ECD Cleaved [3] = biological target: T6, Human GUCY2C ECD Cleaved (human, UniProt P25092 24-430); assay: SPR, human IgG1
# T6 construct: also called human GUCY2c extracellular domain protein (ECD)
# T6 sequence (P25092 other isoform, or with tags, fused parts or gaps): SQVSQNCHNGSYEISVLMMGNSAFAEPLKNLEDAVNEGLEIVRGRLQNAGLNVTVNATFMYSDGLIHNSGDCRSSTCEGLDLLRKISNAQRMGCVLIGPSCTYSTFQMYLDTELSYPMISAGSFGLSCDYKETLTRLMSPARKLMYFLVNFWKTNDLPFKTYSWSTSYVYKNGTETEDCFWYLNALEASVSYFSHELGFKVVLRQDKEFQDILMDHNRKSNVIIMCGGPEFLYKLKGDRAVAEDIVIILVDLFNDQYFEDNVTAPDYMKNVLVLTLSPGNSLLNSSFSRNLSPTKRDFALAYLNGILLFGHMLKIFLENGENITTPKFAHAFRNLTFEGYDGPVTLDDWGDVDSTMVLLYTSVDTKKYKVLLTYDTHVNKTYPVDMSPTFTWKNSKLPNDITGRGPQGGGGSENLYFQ
# Human GUCY2C ECD Cleaved [4] = biological target: T6, Human GUCY2C ECD Cleaved; assay: SPR, human IgG1 against human GUCY2c ECD
# GUCY2C_ECD Peptide 19 = biological target: T2, GUCY2C_ECD Peptide 19; assay: co-crystal structure, 1.6 A
# Human GUCY2C ECD Cleaved [5] = biological target: T6, Human GUCY2C ECD Cleaved; assay: DELFIA ELISA on coated human GUCY2c
# Human GUCY2C ECD Cleaved [6] = biological target: T6, Human GUCY2C ECD Cleaved; assay: direct DELFIA, 60 C
# [7] = biological target: T3, Cynomolgus GUCY2C-ECD Cleaved; assay: direct DELFIA, 60 C
# Human GUCY2C ECD Cleaved [8] = biological target: T6, Human GUCY2C ECD Cleaved; assay: direct DELFIA, RT
# [9] = biological target: T3, Cynomolgus GUCY2C-ECD Cleaved; assay: direct DELFIA, RT
# [10] = biological target: T7, Human GUCY2C full length (SEQ ID NO: 224), recombinant protein (human, UniProt P25092 24-430, limits assumed); assay: SPR, anti-human IgG capture, 25 C
# T7 construct: also called huGUCY2C; biotinylated human GUCY2c
# T7 sequence (P25092 24-430 F281L limits assumed): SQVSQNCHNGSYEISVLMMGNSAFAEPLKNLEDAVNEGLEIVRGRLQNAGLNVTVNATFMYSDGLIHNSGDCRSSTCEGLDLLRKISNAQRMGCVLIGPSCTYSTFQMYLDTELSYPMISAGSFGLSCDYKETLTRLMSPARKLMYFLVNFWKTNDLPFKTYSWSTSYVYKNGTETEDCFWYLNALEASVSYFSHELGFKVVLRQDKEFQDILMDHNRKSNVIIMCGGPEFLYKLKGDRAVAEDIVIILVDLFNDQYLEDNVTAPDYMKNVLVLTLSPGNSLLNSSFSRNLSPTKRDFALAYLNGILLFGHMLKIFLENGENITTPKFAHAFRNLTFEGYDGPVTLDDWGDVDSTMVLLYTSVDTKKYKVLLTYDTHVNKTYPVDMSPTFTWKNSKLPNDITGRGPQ
# Human CD3 epsilon-delta = biological target: T4, Human CD3 epsilon-delta; assay: SPR, CD3 captured by anti-His, 25 C
# [11] = biological target: T8, Human GUCY2c on tumor cells (T84, HT55) (human, UniProt P25092 24-1073); assay: cell-based or functional assay
# T8 sequence (P25092 24-1073 limits assumed): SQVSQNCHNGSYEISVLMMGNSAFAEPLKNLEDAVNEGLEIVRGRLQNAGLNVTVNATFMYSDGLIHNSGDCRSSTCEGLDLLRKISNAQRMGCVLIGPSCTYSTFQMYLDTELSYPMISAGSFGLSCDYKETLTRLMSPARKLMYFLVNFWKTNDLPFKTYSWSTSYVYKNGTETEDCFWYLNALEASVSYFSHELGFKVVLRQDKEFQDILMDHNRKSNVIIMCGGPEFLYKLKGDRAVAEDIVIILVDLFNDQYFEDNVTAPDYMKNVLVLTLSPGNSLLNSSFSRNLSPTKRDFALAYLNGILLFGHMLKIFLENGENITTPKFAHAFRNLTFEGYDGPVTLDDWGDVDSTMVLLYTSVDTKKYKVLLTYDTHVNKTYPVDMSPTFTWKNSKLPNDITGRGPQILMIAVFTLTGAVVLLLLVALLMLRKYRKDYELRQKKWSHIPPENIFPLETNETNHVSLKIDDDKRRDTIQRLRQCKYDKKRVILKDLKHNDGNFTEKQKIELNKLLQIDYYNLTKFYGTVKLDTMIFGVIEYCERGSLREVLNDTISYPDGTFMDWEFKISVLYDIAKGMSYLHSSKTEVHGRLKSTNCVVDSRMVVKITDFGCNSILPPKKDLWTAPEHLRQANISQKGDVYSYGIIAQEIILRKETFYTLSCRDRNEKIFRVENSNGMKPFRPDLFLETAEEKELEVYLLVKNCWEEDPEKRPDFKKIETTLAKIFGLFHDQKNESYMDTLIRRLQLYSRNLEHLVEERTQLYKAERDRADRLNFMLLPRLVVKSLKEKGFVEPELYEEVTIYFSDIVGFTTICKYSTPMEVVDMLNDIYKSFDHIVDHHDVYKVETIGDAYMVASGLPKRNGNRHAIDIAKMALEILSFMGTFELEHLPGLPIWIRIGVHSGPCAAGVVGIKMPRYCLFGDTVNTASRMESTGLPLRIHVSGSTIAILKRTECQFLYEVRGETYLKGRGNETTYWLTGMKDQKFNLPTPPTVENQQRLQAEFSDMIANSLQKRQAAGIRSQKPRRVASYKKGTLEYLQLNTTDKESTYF
# [12] = biological target: T8, Human GUCY2c on tumor cells (T84, HT55); assay: cell-based or functional assay; remark: listed apart in the source
binder,measurement,setting,value
B1,binding result,[1],binds
same,binding result,[2],binds
B2,fold improvement of affinity against the parent antibody (GUCY2C-1640),Human GUCY2C ECD Cleaved [3],3.4 fold
same,Kd,Human GUCY2C ECD Cleaved [4],4.07 nM
same,koff,Human GUCY2C ECD Cleaved [4],0.0011 s⁻¹
same,kon,Human GUCY2C ECD Cleaved [4],272000 M⁻¹ s⁻¹
B3,binding result,GUCY2C_ECD Peptide 19,binds
B4,EC50,Human GUCY2C ECD Cleaved [5],0.25 µg/mL
B5,EC50,Human GUCY2C ECD Cleaved [6],19.2 nM
same,EC50,[7],15.7 nM
same,EC50,Human GUCY2C ECD Cleaved [8],4.39 nM
same,EC50,[9],4.9 nM
same,Kd,[10],3.69 nM
same,koff,[10],0.000434 s⁻¹
same,kon,[10],118000 M⁻¹ s⁻¹
same,Kd,Human CD3 epsilon-delta,26.9 nM
same,koff,Human CD3 epsilon-delta,0.00956 s⁻¹
same,kon,Human CD3 epsilon-delta,355000 M⁻¹ s⁻¹
same,"T84 tumor cell EC50 (T cell cytotoxicity, E:T 5:1)",[11],0.24 nM
same,"T84 tumor cell EC50 (T cell cytotoxicity, E:T 5:1)",[12],0.24 nM
